This note sets out measurements from publication PMC4856295 (Nature, 2016).

The data set “cryo-EM structure” deals with the molecule itself. The experiment in a line: cryo-EM structure.
The target of data set [1] is TATA-binding protein (TBP), subunit of endogenous human TFIID (human, UniProt P20226 1-339). Put plainly: cryo-EM structure.
Chain of TATA-binding protein (TBP), subunit of endogenous human TFIID (P20226 whole entry): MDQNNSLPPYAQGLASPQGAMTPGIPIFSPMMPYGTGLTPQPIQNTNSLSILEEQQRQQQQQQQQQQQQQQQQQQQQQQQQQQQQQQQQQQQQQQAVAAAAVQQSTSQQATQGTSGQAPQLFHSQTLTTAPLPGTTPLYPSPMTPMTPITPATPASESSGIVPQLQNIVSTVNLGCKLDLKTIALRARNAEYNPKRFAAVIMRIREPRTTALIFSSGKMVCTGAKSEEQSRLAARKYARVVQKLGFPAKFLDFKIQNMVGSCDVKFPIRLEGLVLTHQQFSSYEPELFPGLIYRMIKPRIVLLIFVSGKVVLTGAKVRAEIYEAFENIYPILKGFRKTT

B1: TAF6, subunit of endogenous human TFIID (natural protein)
chain: not shown
What is called stoichiometry N is a count of units in the complex or per binding partner. As to B1, the “stoichiometry N” value in “cryo-EM structure” amounted to 2.

B2: human TFIIA (conserved three-subunit core TFIIA) (complex)
chain 1: ANSANTNTVPKLYRSVIEDVINDVRDIFLDDGVDEQVLMELKTLWENKLMQSRAVDG
chain 2: GAEDGQVEEEPLNSEDDVSDEEGQELFDTENVVVCQYDKIHRSKNKWKFHLKDGIMNLNGRDYIFSKAIGDAEW
chain 3: AYQLYRNTTLGNSLQESLDELIQSQQITPQLALQVLLQFDKAINAALAQRVRNRVNFRGSLNTYRFCDNVWTFVLNDVEFREVTELIKVDKVKIVACDGKNTGSNTTE
As for B2, the binding result in data set [1] is listed as “binds”.
